6 molecules from US20240116995A1 (89BIO, published 2024) can be followed below.

In the assay the target is T1, human β-Klotho (human, UniProt Q86Z14 1-1044).
T1 sequence (looked up): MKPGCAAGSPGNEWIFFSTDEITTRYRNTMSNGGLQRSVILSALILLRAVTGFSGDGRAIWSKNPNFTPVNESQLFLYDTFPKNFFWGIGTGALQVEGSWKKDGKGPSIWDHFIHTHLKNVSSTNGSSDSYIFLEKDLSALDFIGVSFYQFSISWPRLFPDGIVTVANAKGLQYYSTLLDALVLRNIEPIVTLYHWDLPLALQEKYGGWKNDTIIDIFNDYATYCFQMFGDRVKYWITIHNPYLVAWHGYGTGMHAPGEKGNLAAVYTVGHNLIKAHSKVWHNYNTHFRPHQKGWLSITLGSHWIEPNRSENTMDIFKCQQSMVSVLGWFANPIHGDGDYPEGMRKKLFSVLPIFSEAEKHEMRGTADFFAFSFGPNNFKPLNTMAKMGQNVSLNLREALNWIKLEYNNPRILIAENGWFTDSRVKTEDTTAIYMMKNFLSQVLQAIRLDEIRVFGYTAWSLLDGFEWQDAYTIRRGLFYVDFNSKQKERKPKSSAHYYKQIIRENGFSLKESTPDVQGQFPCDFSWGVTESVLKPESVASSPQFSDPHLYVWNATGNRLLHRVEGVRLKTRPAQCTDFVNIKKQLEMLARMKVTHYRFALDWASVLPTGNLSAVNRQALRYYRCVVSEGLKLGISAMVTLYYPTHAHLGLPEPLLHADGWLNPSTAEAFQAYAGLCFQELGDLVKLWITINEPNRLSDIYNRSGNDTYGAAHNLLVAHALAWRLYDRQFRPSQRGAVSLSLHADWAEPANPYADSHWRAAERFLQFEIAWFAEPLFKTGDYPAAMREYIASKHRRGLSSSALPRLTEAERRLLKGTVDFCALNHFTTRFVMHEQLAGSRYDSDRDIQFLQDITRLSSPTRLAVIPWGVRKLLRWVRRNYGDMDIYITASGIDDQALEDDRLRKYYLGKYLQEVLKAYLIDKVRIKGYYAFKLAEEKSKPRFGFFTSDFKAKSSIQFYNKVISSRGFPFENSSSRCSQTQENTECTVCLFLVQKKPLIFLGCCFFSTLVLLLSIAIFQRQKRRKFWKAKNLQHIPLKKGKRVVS
Kind of assay: cell-based or functional assay.

B1: 20 kDa PEG-FGF-21 P(5)TSSP mutant conjugate (ligand)
chain: MHPIPTSSPLLQFGGQVRQRYLYTDDAQQTEAHLEIREDGTVGGAADQSPESLLQLKALKPGVIQILGVKTSRFLCQRPDGALYGSLHFDPEACSFRELLLEDGYNVYQSEAHGLPLHLPGNKSPHRDPAPRGPARFLPLPGLPPALPEPPGILAPQPPDVGSSDPLSMVGPSQGRSPSYAS
modifications: GalNAc-SA-PEG-20 kDa (glycoPEG) on the introduced threonine 6
Consider B1, for which the “ERK phosphorylation HEK-293 cells expressing β-Klotho EC50 values” is 293 nM.

B2: 20 kDa PEG-FGF-21 P(172)TQGAS mutant conjugate (ligand)
chain: MHPIPDSSPLLQFGGQVRQRYLYTDDAQQTEAHLEIREDGTVGGAADQSPESLLQLKALKPGVIQILGVKTSRFLCQRPDGALYGSLHFDPEACSFRELLLEDGYNVYQSEAHGLPLHLPGNKSPHRDPAPRGPARFLPLPGLPPALPEPPGILAPQPPDVGSSDPLSMVGPTQGASPSYAS
modifications: GalNAc-SA-PEG-20 kDa (glycoPEG) on the introduced threonine 173
As for B2, the “ERK phosphorylation HEK-293 cells expressing β-Klotho EC50 values” stood at 86 nM.

B3: 30 kDa PEG-FGF-21 P(172)TQGAS mutant conjugate (ligand)
chain: MHPIPDSSPLLQFGGQVRQRYLYTDDAQQTEAHLEIREDGTVGGAADQSPESLLQLKALKPGVIQILGVKTSRFLCQRPDGALYGSLHFDPEACSFRELLLEDGYNVYQSEAHGLPLHLPGNKSPHRDPAPRGPARFLPLPGLPPALPEPPGILAPQPPDVGSSDPLSMVGPTQGASPSYAS
modifications: GalNAc-SA-PEG-30 kDa (glycoPEG) on the introduced threonine 173
As for B3, the “ERK phosphorylation HEK-293 cells expressing β-Klotho EC50 values” was 177 nM.

B4: 20 kDa PEG-FGF-21 P(156)TP mutant conjugate (ligand)
chain: MHPIPDSSPLLQFGGQVRQRYLYTDDAQQTEAHLEIREDGTVGGAADQSPESLLQLKALKPGVIQILGVKTSRFLCQRPDGALYGSLHFDPEACSFRELLLEDGYNVYQSEAHGLPLHLPGNKSPHRDPAPRGPARFLPLPGLPPALPEPPGILAPTPPDVGSSDPLSMVGPSQGRSPSYAS
modifications: GalNAc-SA-PEG-20 kDa (glycoPEG) on the introduced threonine 157
With B4, the “ERK phosphorylation HEK-293 cells expressing β-Klotho EC50 values” was determined as 109 nM.

B5: 30 kDa PEG-FGF-21 P(5)TSSP mutant conjugate (ligand)
chain: MHPIPTSSPLLQFGGQVRQRYLYTDDAQQTEAHLEIREDGTVGGAADQSPESLLQLKALKPGVIQILGVKTSRFLCQRPDGALYGSLHFDPEACSFRELLLEDGYNVYQSEAHGLPLHLPGNKSPHRDPAPRGPARFLPLPGLPPALPEPPGILAPQPPDVGSSDPLSMVGPSQGRSPSYAS
modifications: GalNAc-SA-PEG-30 kDa (glycoPEG) on the introduced threonine 6
On to B5, for which the “ERK phosphorylation HEK-293 cells expressing β-Klotho EC50 values” is greater than 3000 nM.

B6: 30 kDa PEG-FGF-21 P(156)TP mutant conjugate (ligand)
chain: MHPIPDSSPLLQFGGQVRQRYLYTDDAQQTEAHLEIREDGTVGGAADQSPESLLQLKALKPGVIQILGVKTSRFLCQRPDGALYGSLHFDPEACSFRELLLEDGYNVYQSEAHGLPLHLPGNKSPHRDPAPRGPARFLPLPGLPPALPEPPGILAPTPPDVGSSDPLSMVGPSQGRSPSYAS
modifications: GalNAc-SA-PEG-30 kDa (glycoPEG) on the introduced threonine 157
Consider B6, for which the “ERK phosphorylation HEK-293 cells expressing β-Klotho EC50 values” is 188 nM.
